{"source": "patent US20200325187A1", "about": "(Genentech, published 2020)", "key": {"hVEGF-A (8-109) [1]": {"target": "T1, hVEGF-A (8-109) (human, UniProt P15692 214-315)", "T1 sequence (looked up)": "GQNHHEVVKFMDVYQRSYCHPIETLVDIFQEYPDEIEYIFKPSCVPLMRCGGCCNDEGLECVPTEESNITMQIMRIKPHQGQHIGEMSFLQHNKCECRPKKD", "experiment": "competition ELISA: VEGF-A (8-109) coated, constant Flt-1 receptor, peptide titrated; blocked ligand: Flt-1", "method": "(§1) Binding specificity of each peptide was established by competition ELISA. […] After blocking with block buffer (PBS with 0.5% BSA and 0.05% TWEEN®20) for 2 hours at room temperature, the receptor-Fc fusions or biotinylated receptors were serially diluted using assay buffer (PBS with 0.5% BSA and 0.05% TWEEN®20) and incubated for 1 hour at room temperature. […] Competition ELISA was conducted in an identical fashion as described above except after blocking, a mixture of serially diluted peptide containing a constant concentration of receptor-Fc fusion or biotinylated receptor (concentration of receptor was set to EC₆₀) was added and incubated for 1 hour. All recombinant human proteins and antibodies were purchased from R &D Systems (Minneapolis, Minn.)."}, "hVEGF-A [2]": {"target": "T2, hVEGF-A (human, UniProt P15692-4 27-191, limits assumed)", "experiment": "cell-based or functional assay"}, "hVEGF-A (8-109) [3]": {"target": "T1, hVEGF-A (8-109)", "experiment": "competition ELISA: VEGF-A (8-109) coated, constant Flt-1 receptor, peptide titrated; blocked ligand: Flt-1", "method": "as §1", "remark": "listed apart in the source"}, "VEGF-B": {"target": "T3, VEGF-B (human, UniProt P49765-2 22-188, limits assumed)", "T3 sequence (looked up)": "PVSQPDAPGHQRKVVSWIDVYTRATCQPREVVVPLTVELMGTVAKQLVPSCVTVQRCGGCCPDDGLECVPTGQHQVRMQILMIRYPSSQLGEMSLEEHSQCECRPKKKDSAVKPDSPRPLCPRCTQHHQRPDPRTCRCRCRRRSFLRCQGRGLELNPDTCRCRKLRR", "experiment": "competition ELISA: VEGF-B coated, constant Flt-1 receptor, peptide titrated"}, "hVEGF-A [4]": {"target": "T2, hVEGF-A", "experiment": "cell-based or functional assay", "remark": "listed apart in the source"}, "human VEGF-A 165": {"target": "human VEGF-A 165 (human, UniProt P15692-4 27-191)", "experiment": "competition ELISA: VEGF-A 165 coated, constant KDR receptor, peptide titrated; blocked ligand: KDR", "method": "as §1"}, "VEGF-D": {"target": "T4, VEGF-D (human, UniProt O43915 93-201, limits assumed)", "T4 sequence (looked up)": "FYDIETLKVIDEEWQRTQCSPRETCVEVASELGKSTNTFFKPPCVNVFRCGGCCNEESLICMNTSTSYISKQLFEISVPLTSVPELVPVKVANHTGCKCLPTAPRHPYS", "experiment": "competition ELISA: VEGF-D coated, constant Flt-4 receptor, peptide titrated"}, "NGF": {"target": "NGF (human, UniProt P01138 122-241, limits assumed)", "sequence (P01138 122-241 limits assumed)": "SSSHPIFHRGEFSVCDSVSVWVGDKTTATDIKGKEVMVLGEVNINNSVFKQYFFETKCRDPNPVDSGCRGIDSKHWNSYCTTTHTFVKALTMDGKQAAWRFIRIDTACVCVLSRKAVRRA", "experiment": "competition ELISA: NGF coated, constant NGFR receptor, peptide titrated"}, "hVEGF-A (8-109) [5]": {"target": "T1, hVEGF-A (8-109)", "experiment": "competition ELISA: VEGF-A (8-109) coated, constant KDR receptor, peptide titrated; blocked ligand: KDR", "method": "as §1"}, "rabbit VEGF-A": {"target": "T5, rabbit VEGF-A (rabbit, UniProt G1T1L9 1-398)", "T5 sequence": "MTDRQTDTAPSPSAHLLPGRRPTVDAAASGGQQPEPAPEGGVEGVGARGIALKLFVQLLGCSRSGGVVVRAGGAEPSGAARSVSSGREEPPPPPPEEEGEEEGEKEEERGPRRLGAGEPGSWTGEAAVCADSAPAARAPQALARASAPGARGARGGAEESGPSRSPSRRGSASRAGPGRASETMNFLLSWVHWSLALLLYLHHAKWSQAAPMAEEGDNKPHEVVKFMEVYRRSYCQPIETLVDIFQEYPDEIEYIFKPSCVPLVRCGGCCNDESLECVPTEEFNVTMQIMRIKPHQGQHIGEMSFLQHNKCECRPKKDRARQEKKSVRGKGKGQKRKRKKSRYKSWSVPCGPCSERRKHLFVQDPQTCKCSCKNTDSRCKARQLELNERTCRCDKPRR", "experiment": "SPR", "method": "(§2) Depending on the format of the assay either a streptavidin sensor (SA) or a dextran-coated (CM5) sensor was utilized as described below.\n(§3) Reaction was then quenched by addition of 10 molar excess of Glycine pH 8.0 and the sample was buffer exchanged into PBS using an Amicon 0.5 mL 3000 MWCO ultra-centrifugal filters (EMD Millipore). The biotinylation state of the protein was verified by LC-MS analysis. Biotinylated VEGF-A was then captured on the surface until a resonance unit (RU) signal of about ˜400. For immobilization of VEGF-A on CM5 sensor, the surface was first activated with a mixture of N-ethyl-N′-(3-dimethylaminopropyl)carbodiimide hydrochloride and N-hydroxysuccinimide (EDC/NHS) according to the supplier instructions. VEGF-A was then diluted into coupling buffer (0.1 M Acetate Buffer, pH 5.0) and injected until the signal reached about ˜400 RU followed by a wash with 1 M ethanolamine pH 8.0 to quench remaining activated sites."}, "hVEGF-A (8-109) [6]": {"target": "T1, hVEGF-A (8-109)", "experiment": "SPR", "method": "as §2, §3"}, "mouse VEGF-A 164": {"target": "T6, mouse VEGF-A 164 (mouse, UniProt Q00731-2 27-190)", "T6 construct": "also called mouse 164", "T6 sequence (looked up)": "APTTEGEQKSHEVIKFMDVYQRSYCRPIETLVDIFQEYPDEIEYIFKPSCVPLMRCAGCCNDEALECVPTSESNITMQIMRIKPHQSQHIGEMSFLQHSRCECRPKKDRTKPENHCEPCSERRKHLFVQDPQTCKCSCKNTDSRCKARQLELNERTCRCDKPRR", "experiment": "SPR", "method": "as §2, §3"}, "EGF": {"target": "EGF (human, UniProt P01133 971-1023)", "sequence (P01133 971-1023 limits assumed)": "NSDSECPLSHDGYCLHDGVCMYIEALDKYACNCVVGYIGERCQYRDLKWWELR", "experiment": "competition ELISA: EGF coated, constant EGFR receptor, peptide titrated"}, "PDGF-ββ": {"target": "PDGF-ββ (human, UniProt P01127 82-190)", "sequence (P01127 82-190)": "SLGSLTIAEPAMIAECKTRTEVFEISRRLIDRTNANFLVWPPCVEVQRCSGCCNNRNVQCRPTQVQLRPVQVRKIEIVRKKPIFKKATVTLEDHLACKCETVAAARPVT", "experiment": "competition ELISA: PDGF coated, constant PDGFR receptor, peptide titrated"}, "hVEGF-A [7]": {"target": "T2, hVEGF-A", "experiment": "cell-based or functional assay", "remark": "listed apart in the source"}}, "note": "Where two headings read alike, the source gives them in different places.", "data": [{"binder": "GCNIMLPFWGCGRDFECLAGCVCQYYQSCG (designed binder)", "note": "[VEGF_CKP9.54.90]", "values": [{"measurement": "IC50 (read off the curve)", "setting": "hVEGF-A (8-109) [1]", "result": "~70", "unit": "nM"}, {"measurement": "Cellular IC50", "setting": "hVEGF-A [2]", "result": 1.35, "unit": "nM"}, {"measurement": "FOLD [..] [..] TO VARIANT 9.54.90", "setting": "hVEGF-A [2]", "result": 1, "unit": "fold"}, {"measurement": "IC50 (read off the curve)", "setting": "hVEGF-A (8-109) [3]", "result": "~70", "unit": "nM"}, {"measurement": "binding result", "setting": "VEGF-B", "result": "no binding (tested: 5 µM)"}, {"measurement": "Cellular IC50", "setting": "hVEGF-A [4]", "result": 1.35, "unit": "nM"}, {"measurement": "IC50 (read off the curve)", "setting": "human VEGF-A 165", "result": "~30", "unit": "nM"}, {"measurement": "binding result", "setting": "VEGF-D", "result": "no binding (tested: 5 µM)"}, {"measurement": "binding result", "setting": "NGF", "result": "no binding (tested: 5 µM)"}, {"measurement": "IC50 (read off the curve)", "setting": "hVEGF-A (8-109) [5]", "result": "~20", "unit": "nM"}, {"measurement": "Kd", "setting": "rabbit VEGF-A", "result": 1.14, "unit": "nM"}, {"measurement": "Kd", "setting": "hVEGF-A (8-109) [6]", "result": 0.87, "unit": "nM"}, {"measurement": "Kd", "setting": "mouse VEGF-A 164", "result": 1.31, "unit": "nM"}, {"measurement": "binding result", "setting": "EGF", "result": "no binding (tested: 5 µM)"}, {"measurement": "binding result", "setting": "PDGF-ββ", "result": "no binding (tested: 5 µM)"}, {"measurement": "Cellular IC50", "setting": "hVEGF-A [7]", "result": 1.35, "unit": "nM"}, {"measurement": "FOLD [..] [..] TO VARIANT 9.54.90", "setting": "hVEGF-A [7]", "result": 1, "unit": "fold"}]}]}
